Reference: the supplement of paper PMC12042874
± gives the uncertainty stated by the source.

assay: amyloid nucleation score (Sup35N fusion, yeast selection) (log enrichment); library NNK3; higher = more nucleation; inactive = no reads after selection
Method in brief: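 Three technical output replicates were used for random libraries. Psi-negative yeast expressing peptides of 20 random codons fused to Sup35N were induced with 100 μM copper sulfate for 24 hours and grown 7 days at 30°C on medium lacking adenine and uracil, and input and output plasmid inserts were Illumina-sequenced, excluding sequences with under 100 input reads. The nucleation score is the DiMSum log enrichment of output over input reads, centred on the mode score of non-aggregating sequences.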

Amyloid nucleation score, 1.56 ± 0.07:
GISCNLYVINGICSWYFLVT

Amyloid nucleation score, 1.15 ± 0.1:
KRPWTVFFVFFIGFATLL

Amyloid nucleation score, 1.79 ± 0.1:
VDVAVFLEMLYCWCRDGFTR

Amyloid nucleation score, 1.39 ± 0.15:
FCGGVAFMMVNVERVRTRRE

Amyloid nucleation score, 2.25 ± 0.064:
DCSFMPTLYLGPTTFFFWHL

Amyloid nucleation score, -0.47 ± 0.8:
WNYRFYPVKRNGSFLSRIVR

Amyloid nucleation score, 2.13 ± 0.056:
VVISYQTSMTNHGCLSFYQW

Amyloid nucleation score, -0.17 ± 0.88:
DLTNEMQVCVNV

Amyloid nucleation score, -0.272 ± 1.4:
SSWMYGFCVSKSSWPRL

Amyloid nucleation score, inactive:
LFSWRKYGVNHQLLGVEIQS
MRRKDKNIRVDYRVAGGYRD
RTYYASWENDSMGAVSYCAS
SLCRSLGLGLLAPYRFFTWR
GYRYTVHGIFEGVLWLTSAG
MVMNYWSTCNYSWPEVVISG
FEMPLMWYCGGFYSSPLLCK
KLLRQNSY
TCLLIYFMFHGEVMPLWSI
HLRETCCRWDVLCVDSLLV
NKLIRSEVSLLAMCMCSGNG
HPTFHSHDRGR
GSVSPGNSILICFWFFWLLW
IRYLYLV
RSNGPLFQVVITYCVSLPLN
WSCNN
FIVVQGIAPCGFTS
FNRLDTNTTSGPRTGTTLEM
ANHLPWEAVWTPRWGYGCSP
SLGSPYRTRGCLNKSPPLAC
SWNRYTLRLSPSGFLVKVSL
MILSNISGSRLIGSSNHSAF
CNGLNRIVDLNWNMMSIMRS
HLRVMLLCFREYWDYAIMAL
FGTNVPISNLIKEVLYIRYS
YNRYV
SSANVDMPVDCDTRWTCW
VKYDDSWYDDWHIYNVYRCK
PDLRLMVVCASYPGSATRAM
NHKEWWFTVYLTSGVVCDLG
MSNLCDLHKN
SKRVSALRHKIRKNCVMNFD
KRFHWFGVGVDAVMRFGV
RCFRLIKVLKLLTVFEIITF
IRLSQNWGSYVCSNTLNSER
DNLTVTFRCLHAYLGGLDFD
SIGISEPLIIYLFNWQLLYW
TYYLSMN
QHLLYSPIEPIVPSVWDIVD
LMIWVSDLSE
KYYYVLGMQMYRHLYWTACV
NSNIQKHICVQFVKRWLEPC
IHTGKMLTYCFKSNLSVRTS
LVLQLGFKKSPLRVYRSSGN
GSHVTKVLTFYSNVWVHFTG
GYSSTRNLAA
YVHFAN
GVYPSGCYLNVRFWSLVHGA
DFTLTPMWRHFEGFNKVAWG
WVVWEM
GLVWCFCLCSITSYIMVILF
VFVVQNGMPTRFECVLGVQR
EVSLFVTHIL
QSSLVDGWKNLTKVRCGDYS
VLVNPILLPMPLQ
KWFAATVLSNKPREEKRMVT
LDVLKMGIVV
REITSWLDIDFL
IKAPRFYAPFLLIVSQWVST
NERREANGWSYRDLHGSGFE
NAVRLVGSPAVVVSTMGHN
FKSLLSRISHFKFASGWYVH
MLRDFFQ
YSCFVRHCVDRFVRNDSDQT
GERWVQKIQ
ATFYSFLRFKQINNRNNEAF
SRSLLEAWDHGTHAGLHVWS
YDKCLQCARRHNSSILSPTG
NHQLGIGYFCDTYLCDHWDP
FLRMHVRGFDTFRARQ
CYEPVAGVFCMRIGLTVVGN
FYRSLGMYRDWTMSIFGKYL
ILVDWFDCDQCKQTFCPGLV
HPSQIKKVAFHYVRICSKWL
NVLVN
VGNFYVSNVAFLWVK
HSFVSWTRLT
CMSTKTNFT
STYLF
HSLLMCSMLLRFYVQYPICI
SVGLDRTSQEHSAYVGNVHS
FSQWT
YGRRKYSWAVWICKHIGAYG
MYLFRENGHQSGNVY
RAYMVGCYDCSSYLDPFSYS
VGPLSDSVFMYGT
HDYYLLLLTATL
LGTWFWVVVG
CLLPFTTGYDFFLHQIEGWG
RWDNMFLSWRYCWVYAVSFS
YTLYLGCGTNDVWVDAYLYS
FTIGRYILFVMKDFVFLWFV
YSSSRLI
FFERSR
IRSILW
FATVDDMSTGFRYIFLITRA
AIVWPSYFIWFYSNESRKDR
YQLFRFWDVRDSNHSKKIMQ

Amyloid nucleation score, 1.25 ± 0.083:
SLSVSYDVLWRIFSGNNGNW

Amyloid nucleation score, -0.517 ± 1.2:
HDMVREVDPILFMTLFRGGF

Amyloid nucleation score, 2.58 ± 0.087:
RLNLNVIL

Amyloid nucleation score, 0.034 ± 0.51:
SQCYCVYAGVVT

Amyloid nucleation score, 0.844 ± 0.24:
CWWCCATGTHSSSYIGRGVH

Amyloid nucleation score, 0.014 ± 0.77:
YVPFNFMKHVIATVLSGV

Amyloid nucleation score, 0.986 ± 0.21:
INWFGVRYRYDSSNYFMYQL

Amyloid nucleation score, 0.993 ± 0.16:
PGSFNLILVTYIGLLQKLLH

Amyloid nucleation score, 0.931 ± 0.1:
MFVSLMKQFM

Amyloid nucleation score, 0.711 ± 0.12:
HHIMIATLSG
